Square brackets hold non-standard residues; d marks the D form. Primed or numbered codes have the meaning given here. Ends that are not written are not given here. FITC′ = fluorescein isothiocyanate label; Cha = N[C@@H](CC1CCCCC1)C(=O)O
Key:
[1] = biological target: E. coli sliding clamp (DnaN protein, β subunit of DNA polymerase III) (E. coli) (UniProt P0A988); test: cell-based or functional assay
[2] = biological target: E. coli 70S ribosome particle (E. coli); test: ITC, 30 °C, E. coli ribosome
[3] = biological target: E. coli 70S ribosome particle (E. coli); test: ITC, 30 °C, peptide titrated into E. coli 70S ribosome

E. coli sliding clamp (DnaN protein, β subunit of DNA polymerase III) (E. coli), sequence (P0A988 whole entry): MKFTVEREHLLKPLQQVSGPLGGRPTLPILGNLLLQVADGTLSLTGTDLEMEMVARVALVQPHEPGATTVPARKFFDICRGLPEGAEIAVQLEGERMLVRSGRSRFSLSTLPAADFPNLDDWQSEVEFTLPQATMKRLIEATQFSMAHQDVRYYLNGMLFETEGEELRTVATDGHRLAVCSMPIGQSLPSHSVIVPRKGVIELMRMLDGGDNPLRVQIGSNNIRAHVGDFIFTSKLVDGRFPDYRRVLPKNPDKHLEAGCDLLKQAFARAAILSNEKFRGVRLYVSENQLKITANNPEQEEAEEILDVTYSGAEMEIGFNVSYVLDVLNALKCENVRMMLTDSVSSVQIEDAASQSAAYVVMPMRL

{FITC′}-KVDKPPYLPRPRPPR[dR]IYN[dR]GPRQ[Cha]DLF-OH (not fully specified) [CM1-92 (FITC-Onc112-P7), FITC-K-…rIYNrGPRQChaDLF-OH]
MIC (µM), E. coli ATCC 25922, Mueller-Hinton broth [1]: 16 µM

{FITC′}-VDKPPYLPRPRPPR[dR]IYN[dR]-NH2 (not fully specified) [CA3-124 (FITC-Onc112), FITC-…rIYNr-NH2]
Kd [2]: 7.7 µM | ΔG [2]: -7.1 kcal/mol | ΔH [2]: -22.6 kcal/mol

VDKGSYLPRPTPPRPIYNRNGPR[Cha]FQLD-OH [P188 (Py-P7Scr), …haGQLD-OH]
-TΔS [3]: 5.5 kcal/mol | Kd [3]: 0.0758 µM | ΔG [3]: -9.89 kcal/mol | ΔH [3]: -15.4 kcal/mol
